# B1: SpoVK-His6 (enzyme, B. subtilis, UniProt P27643 1-322, looked up)
# chain: MLERAVTYKNNGQINIILNGQKQVLTNAEAEAEYQAALQKNEAKHGILKEIEKEMSALVGMEEMKRNIKEIYAWIFVNQKRAEQGLKVGKQALHMMFKGNPGTGKTTVARLIGKLFFEMNVLSKGHLIEAERADLVGEYIGHTAQKTRDLIKKSLGGILFIDEAYSLARGGEKDFGKEAIDTLVKHMEDKQHEFILILAGYSREMDHFLSLNPGLQSRFPISIDFPDYSVTQLMEIAKRMIDEREYQLSQEAEWKLKDYLMTVKSTTSPIKFSNGRFVRNVIEKSIRAQAMRLLMGDQYLKSDLMTIKSQDLSIKEEASGSA
# notes: SpoVK, AAA+ ATPase of Bacillus subtilis; also called purified SpoVK
# Biological target: the molecule itself
# Assay: SEC; renatured SpoVK-His6 on Superdex 200 Increase in renaturation buffer (500 mM L-arginine, 100 mM NaCl, pH 7.5), 0.75 ml/min; final peak
protein,measurement,value
B1,stoichiometry N,~3

# Reference: doi:10.1101/2023.10.06.561273, “Bacterial cell surface nanoenvironment requires a specialized chaperone to activate a peptidoglycan biosynthetic enzyme” (bioRxiv, 2023)
